# B1: 5T4 9 mer peptide 37 RTVKCVNRN (peptide)
# peptide: RTVKCVNRN
# notes: also called Peptide No 37
# B2: 5T4 9 mer peptide 66 DEVRAGAFE (peptide)
# peptide: DEVRAGAFE
# notes: also called Peptide No 66
# B3: 5T4 9 mer peptide 69 AFEHLPSLR (peptide)
# peptide: AFEHLPSLR
# notes: also called Peptide No 69
# B4: 5T4 9 mer peptide 55 GAFARRPPL (peptide)
# peptide: GAFARRPPL
# notes: also called Peptide No 55
# B5: 5T4 9 mer peptide 43 VPTDLPAYV (peptide)
# peptide: VPTDLPAYV
# notes: also called Peptide No 43
# B6: 5T4 9 mer peptide 68 AGAFEHLPS (peptide)
# peptide: AGAFEHLPS
# notes: also called Peptide No 68
# B7: 5T4 9 mer peptide 58 PPLAELAAL (peptide)
# peptide: PPLAELAAL
# notes: also called Peptide No 58
# B8: 5T4 9 mer peptide 62 LNLSGSRLD (peptide)
# peptide: LNLSGSRLD
# notes: also called Peptide No 62
# B9: 5T4 9 mer peptide 61 AALNLSGSR (peptide)
# peptide: AALNLSGSR
# notes: also called Peptide No 61
# B10: 5T4 9 mer peptide 49 FLTGNQLAV (peptide)
# peptide: FLTGNQLAV
# notes: also called Peptide No 49
# B11: 5T4 9 mer peptide 45 LPAYVRNLF (peptide)
# peptide: LPAYVRNLF
# notes: also called Peptide No 45
# B12: 5T4 9 mer peptide 54 PAGAFARRP (peptide)
# peptide: PAGAFARRP
# notes: also called Peptide No 54
# B13: 5T4 9 mer peptide 3 CSRGPAAGD (peptide)
# peptide: CSRGPAAGD
# notes: also called Peptide No 3
# B14: 5T4 9 mer peptide 32 PALCECSEA (peptide)
# peptide: PALCECSEA
# notes: also called Peptide No 32
# B15: 5T4 9 mer peptide 33 LCECSEAAR (peptide)
# peptide: LCECSEAAR
# notes: also called Peptide No 33
# B16: 5T4 9 mer peptide 38 VKCVNRNLT (peptide)
# peptide: VKCVNRNLT
# notes: also called Peptide No 38
# B17: 5T4 9 mer peptide 42 TEVPTDLPA (peptide)
# peptide: TEVPTDLPA
# notes: also called Peptide No 42
# B18: 5T4 9 mer peptide 59 LAELAALNL (peptide)
# peptide: LAELAALNL
# notes: also called Peptide No 59
# B19: 5T4 9 mer peptide 34 ECSEAARTV (peptide)
# peptide: ECSEAARTV
# notes: also called Peptide No 34
# B20: 5T4 9 mer peptide 5 PAAGDGRLR (peptide)
# peptide: PAAGDGRLR
# notes: also called Peptide No 5
# B21: 5T4 9 mer peptide 40 NRNLTEVPT (peptide)
# peptide: NRNLTEVPT
# notes: also called Peptide No 40
# B22: 5T4 9 mer peptide 57 RRPPLAELA (peptide)
# peptide: RRPPLAELA
# notes: also called Peptide No 57
# B23: 5T4 9 mer peptide 44 TDLPAYVRN (peptide)
# peptide: TDLPAYVRN
# notes: also called Peptide No 44
# B24: 5T4 9 mer peptide 35 SEAARTVKC (peptide)
# peptide: SEAARTVKC
# notes: also called Peptide No 35
# B25: 5T4 9 mer peptide 65 RLDEVRAGA (peptide)
# peptide: RLDEVRAGA
# notes: also called Peptide No 65
# B26: 5T4 9 mer peptide 71 LPSLRQLDL (peptide)
# peptide: LPSLRQLDL
# notes: also called Peptide No 71
# B27: 5T4 9 mer peptide 117 LPSLRHLDL (peptide)
# peptide: LPSLRHLDL
# notes: also called Peptide No 117
# B28: 5T4 9 mer peptide 47 VRNLFLTGN (peptide)
# peptide: VRNLFLTGN
# notes: also called Peptide No 47
# Molecular target: T1, MHC class I allele A*0101 (bound via biotin to streptavidin-coated plate)
# T1 construct: iTopia MHC class I monomer on the plate; placeholder peptide and b2M removed, then reconstituted with test peptide and fresh b2M; also called A1; HLA A1
# Assay: iTopia peptide binding assay
# Description: (§1) The 9 mers were tested for Peptide Binding, Off Rate and Affinity using iTopia Epitope Discovery System in accordance with the manufacturer's instructions. Briefly, 96 well microtitre plates coated with MHC molecules representing different MHC alleles are used to identify candidate peptides. […] Determinations are performed in duplicate using an ELISA plate reader and included allele specific positive controls.
# (§2) i) Peptide Binding—This assay measures the ability of individual peptides to bind to the MHC molecules under standardized optimal binding conditions. The assay is performed for all the test peptides across the selected MHC alleles. The test peptides identified as “binders” are characterized further in terms of affinity and dissociation experiments.
row,Binder,% of positive control peptide binding [%]
1,B1,7
2,B2,6
3,B3,1
4,B4,0
5,B5,33
6,B6,6
7,B7,6
8,B8,2
9,B9,3
10,B10,4
11,B11,7
12,B12,2
13,B13,0
14,B14,4
15,B15,3
16,B16,6
17,B17,3
18,B18,15
19,B19,2
20,B20,4
21,B21,1
22,B22,2
23,B23,7
24,B24,5
25,B25,4
26,B26,0
27,B27,0
28,B28,0

# Molecular target: T2, MHC class I allele A*0201 (bound via biotin to streptavidin-coated plate)
# T2 construct: iTopia MHC class I monomer on the plate; placeholder peptide and b2M removed, then reconstituted with test peptide and fresh b2M; also called A2; HLA A2
# Assay: iTopia peptide binding assay
# Description: as §1, §2
row,Binder,% of positive control peptide binding [%]
1,B1,12
2,B2,9
3,B3,11
4,B4,41
5,B5,29
6,B6,10
7,B7,19
8,B8,7
9,B9,6
10,B10,90
11,B11,14
12,B12,4
13,B13,3
14,B14,19
15,B15,6
16,B16,3
17,B17,7
18,B18,63
19,B19,4
20,B20,5
21,B21,6
22,B22,11
23,B23,3
24,B24,1
25,B25,69
26,B26,27
27,B27,16
28,B28,5

# Molecular target: T3, MHC class I allele B*0702 (bound via biotin to streptavidin-coated plate)
# T3 construct: iTopia MHC class I monomer on the plate; placeholder peptide and b2M removed, then reconstituted with test peptide and fresh b2M; also called B7; HLA B7
# Assay: iTopia peptide binding assay
# Description: as §1, §2
row,Binder,% of positive control peptide binding [%]
1,B1,3
2,B2,12
3,B3,0
4,B4,91
5,B5,11
6,B6,7
7,B7,33
8,B8,7
9,B9,3
10,B10,6
11,B11,90
12,B12,7
13,B13,3
14,B14,0
15,B15,0
16,B16,2
17,B17,0
18,B18,16
19,B19,0
20,B20,5
21,B21,5
22,B22,9
23,B23,2
24,B24,0
25,B25,32
26,B26,82
27,B27,96
28,B28,3

# Molecular target: T4, MHC class I allele A*0301 (bound via biotin to streptavidin-coated plate)
# T4 construct: iTopia MHC class I monomer on the plate; placeholder peptide and b2M removed, then reconstituted with test peptide and fresh b2M; also called A3; HLA A3
# Assay: iTopia peptide binding assay
# Description: as §1, §2
row,Binder,% of positive control peptide binding [%]
1,B1,12
2,B2,7
3,B3,11
4,B4,3
5,B5,0
6,B6,3
7,B7,4
8,B8,2
9,B9,13
10,B10,3
11,B11,2
12,B12,3
13,B13,5
14,B14,0
15,B15,0
16,B16,0
17,B17,0
18,B18,3
19,B19,0
20,B20,4
21,B21,0
22,B22,2
23,B23,1
24,B24,0
25,B25,17
26,B26,0
27,B27,1
28,B28,0
